In publication PMC9352680, “A comprehensive thermodynamic model for RNA binding by the Saccharomyces cerevisiae Pumilio protein PUF4”:

target: T1, PUF4 RNA-binding domain (Saccharomyces cerevisiae, UniProt P25339 537-888); assay: Mg; RNA-MaP; 20 mM Na-HEPES pH 7.4, 30 mM KOAc, 0.75 mM MgCl2, 0.1% Tween-20, 5% glycerol, 0.1 mg/mL BSA, 2 mM DTT; 25 C; 0.0125-409.6 nM protein; conditions: tags: N-His6-TEV cleaved; C-SNAP kept, Cy3B-labelled; label: tethered on chip by stalled RNA polymerase
T1 sequence: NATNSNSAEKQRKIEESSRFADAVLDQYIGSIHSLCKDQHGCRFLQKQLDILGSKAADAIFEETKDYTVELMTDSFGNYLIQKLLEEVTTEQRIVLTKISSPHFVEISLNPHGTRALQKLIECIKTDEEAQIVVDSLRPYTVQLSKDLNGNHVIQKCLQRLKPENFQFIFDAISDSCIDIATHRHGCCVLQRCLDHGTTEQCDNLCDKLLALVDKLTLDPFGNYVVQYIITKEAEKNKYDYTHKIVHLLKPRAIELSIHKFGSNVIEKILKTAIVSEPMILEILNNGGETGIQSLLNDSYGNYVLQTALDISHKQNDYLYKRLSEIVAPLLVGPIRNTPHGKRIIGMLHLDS

Binder | Kd [nM]
ACAAACGCUAUAUUAUUAAUACAAAC (ssRNA) [Id_ii_S3_P5E.3_K5.2_C5.2_[C-2G]_[T-1C]_H5.2_A5.1_F5.1_T5.2_[T11A]_[A12T]] | 480
ACAAACUUUAUAUUAUUACCACAAAC (ssRNA) [Id_ii_S3_P5E.3_K5.2_C5.2_[C-2T]_H5.2_A5.1_F5.1_T5.2_[T11C]_[A12C]] | 268
ACAAACGCUAUAUUAUUAACACAAAC (ssRNA) [Id_ii_S3_P5E.3_K5.2_C5.2_[C-2G]_[T-1C]_H5.2_A5.1_F5.1_T5.2_[T11A]_[A12C]] | 812
ACAAACGUUAUAUUAUUACUACAAAC (ssRNA) [Id_ii_S3_P5E.3_K5.2_C5.2_[C-2G]_H5.2_A5.1_F5.1_T5.2_[T11C]_[A12T]] | 580
ACAAACGAUAUAUUAUUAGCACAAAC (ssRNA) [Id_ii_S3_P5E.3_K5.2_C5.2_[C-2G]_[T-1A]_H5.2_A5.1_F5.1_T5.2_[T11G]_[A12C]] | 164
UCUCUUGGCAUUAUUAUCUCUU (ssRNA) [Ib_S1_P5E.1_K5.1_C5.1_H5.1_[T1G]_[T3C]_A5.1_F5.1_T5.1] | 1040
ACAAACCAACACUAUUAGCACAAAC (ssRNA) [Id_ii_S3_P4E.4_K4.3_C4.2_[T-1A]_H4.3_A4.1_F4.1_T4.2_[T11C]] | > 2300
ACAAACAGUAUAUUAUUAGAACAAAC (ssRNA) [Id_ii_S3_P5E.3_K5.2_C5.2_[C-2A]_[T-1G]_H5.2_A5.1_F5.1_T5.2_[T11G]] | 35.5
ACAAACGGUAUAUUAUUAGGACAAAC (ssRNA) [Id_ii_S3_P5E.3_K5.2_C5.2_[C-2G]_[T-1G]_H5.2_A5.1_F5.1_T5.2_[T11G]_[A12G]] | 28.9
ACAAACGAUAUAUUAUUACAACAAAC (ssRNA) [Id_ii_S3_P5E.3_K5.2_C5.2_[C-2G]_[T-1A]_H5.2_A5.1_F5.1_T5.2_[T11C]] | 173
ACAAACGAUAUAUUAUUAAUACAAAC (ssRNA) [Id_ii_S3_P5E.3_K5.2_C5.2_[C-2G]_[T-1A]_H5.2_A5.1_F5.1_T5.2_[T11A]_[A12T]] | 285
UCUCUUGUUAUUAUUAUCUCUU (ssRNA) [Ib_S1_P5E.1_K5.1_C5.1_H5.1_[T1G]_[G2T]_A5.1_F5.1_T5.1] | 56.7
ACAAACAGUAUAUUAUUAAGACAAAC (ssRNA) [Id_ii_S3_P5E.3_K5.2_C5.2_[C-2A]_[T-1G]_H5.2_A5.1_F5.1_T5.2_[T11A]_[A12G]] | 36.4
ACAAACGAUAUAUUAUUAACACAAAC (ssRNA) [Id_ii_S3_P5E.3_K5.2_C5.2_[C-2G]_[T-1A]_H5.2_A5.1_F5.1_T5.2_[T11A]_[A12C]] | 313
ACAAACCAACACUAUUAGUACAAAC (ssRNA) [Id_ii_S3_P4E.4_K4.3_C4.2_[T-1A]_H4.3_A4.1_F4.1_T4.2] | > 2300
ACAAACCUACACUAUUAACACAAAC (ssRNA) [Id_ii_S3_P4E.4_K4.3_C4.2_H4.3_A4.1_F4.1_T4.2_[G10A]_[T11C]] | > 2300
UCUCUUCAUAUUAUUAUCUCUU (ssRNA) [Ib_S1_P5E.1_K5.1_C5.1_H5.1_[T1C]_[G2A]_A5.1_F5.1_T5.1] | > 2300
ACAAACGAUAUAUUAUUAAAACAAAC (ssRNA) [Id_ii_S3_P5E.3_K5.2_C5.2_[C-2G]_[T-1A]_H5.2_A5.1_F5.1_T5.2_[T11A]] | 704
ACAAACUAUAUAUUAUUACAACAAAC (ssRNA) [Id_ii_S3_P5E.3_K5.2_C5.2_[C-2T]_[T-1A]_H5.2_A5.1_F5.1_T5.2_[T11C]] | 13.5
ACAAACUCUAUAUUAUUACGACAAAC (ssRNA) [Id_ii_S3_P5E.3_K5.2_C5.2_[C-2T]_[T-1C]_H5.2_A5.1_F5.1_T5.2_[T11C]_[A12G]] | 230
ACAAACUUUAUAUUAUUACGACAAAC (ssRNA) [Id_ii_S3_P5E.3_K5.2_C5.2_[C-2T]_H5.2_A5.1_F5.1_T5.2_[T11C]_[A12G]] | 381
ACAAACUCUAUAUUAUUAAGACAAAC (ssRNA) [Id_ii_S3_P5E.3_K5.2_C5.2_[C-2T]_[T-1C]_H5.2_A5.1_F5.1_T5.2_[T11A]_[A12G]] | 684
ACAAACUUUAUAUUAUUAGCACAAAC (ssRNA) [Id_ii_S3_P5E.3_K5.2_C5.2_[C-2T]_H5.2_A5.1_F5.1_T5.2_[T11G]_[A12C]] | 82.9
ACAAACUAUAUAUUAUUAUUACAAAC (ssRNA) [Id_ii_S3_P5E.3_K5.2_C5.2_[C-2T]_[T-1A]_H5.2_A5.1_F5.1_T5.2_[A12T]] | 19.2
ACAAACGAUAUAUUAUUACCACAAAC (ssRNA) [Id_ii_S3_P5E.3_K5.2_C5.2_[C-2G]_[T-1A]_H5.2_A5.1_F5.1_T5.2_[T11C]_[A12C]] | 519
ACAAACUAUAUAUUAUUAAUACAAAC (ssRNA) [Id_ii_S3_P5E.3_K5.2_C5.2_[C-2T]_[T-1A]_H5.2_A5.1_F5.1_T5.2_[T11A]_[A12T]] | 18.3
ACAAACGAUAUAUUAUUAGGACAAAC (ssRNA) [Id_ii_S3_P5E.3_K5.2_C5.2_[C-2G]_[T-1A]_H5.2_A5.1_F5.1_T5.2_[T11G]_[A12G]] | 164
